In US20250276050A1:
Values belong to the molecule of their own block, whether it stands above or below them.

How the values were obtained:
[1] = target: heterodimeric IL-1RL1/IL-1RAcP on the surface of HEK-Blue IL-33 cells (human) (UniProt Q01638); assay: cell-based or functional assay
[2] = target: receptor subunits IL4Rα and IL-13Rα1 naturally expressed on HEK-Blue IL-4/IL-13 cells (UniProt P24394); assay: cell-based or functional assay

SEAP reporter enzyme readout, EC50 (HEK-Blue IL-33 cells) [1]: 10 ng/mL
Molecule: His6-cIL-33-CS (amino acids 110-263 of dog IL-33 with the 3 cysteines replaced by serine, start methionine and N-terminal His6-tag, expressed in E. coli) (from UniProt O97863 110-263) (ligand)

SEAP reporter enzyme readout, EC50 (HEK-Blue IL-4/IL-13 cells) [2]: 2 ng/mL
B1: cIL-13-His6 (canine IL-13 with start methionine and C-terminal His6-tag, expressed in E. coli) (ligand)
chain: MSPSPVTPSPTLKELIEELVNITQNQASLCNGSMVWSVNLTAGMYCAALESLINVSDCSAIQRTQRMLKALCSQKPAAGQISSERSRDTKIEVIQLVKNLLTYVRGVYRHGNFRHHHHHH
